Measurements as given in the nanobody polyreactivity screen of Harvey et al. (2022).

Test: yeast display, Sf9 membrane polyspecificity reagent, FACS + sequencing; frameworks hold sequencing errors
Summary of the method: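 Nanobodies came from a synthetic yeast display library in Saccharomyces cerevisiae BJ5465, induced with galactose for 36–48 hours and stained for 1 hour at 4 °C with 10% biotinylated, detergent-solubilized Sf9 membrane reagent. Cells were enriched on streptavidin microbeads and then FACS-sorted, with low and high (top ~1%) gates set on anti-HA fluorescence for expression and streptavidin fluorescence for reagent binding. Each polyreactivity label reflects the gate a clone came from. Genes were amplified by colony PCR, sequenced by MiSeq 2 × 250 and filtered by CDR length.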
With “QVQLVESGGGLVQAGGSLRLSCAASGRTFFQYAMGWYRQAPGKERELVATIRSGGSTYYADSVKGRFTISRDNAKNTVYLQMNSLKPEDTAVYYCATRYTRFRHFDYWGQGTQVTVSS” the “polyreactivity (PSR sort gate)” value was “low polyreactivity”. For “QVQLVESGGGLVQAGGSLRLSCAASGRTFFRNTMGWYRQAPGKERELVATISSSGGSTYYADSVKGRFTISRDNAKNTVYLQMNSLKPEDTAVYYCAAAPSKWYYGYGYWGQGTQVTVSS”, the “polyreactivity (PSR sort gate)” value was “high polyreactivity”. For “QVQLVESGGGLVQAGGSLRLSCAASGRTFFRYAMGWYRQAPGKERELVAVITRGGSTYYADSVKGRFTISRDNAKNTVYLQMNSLKPEDTAVYYCNADGRVQRKYDYWGQGTQVTVSS”, the “polyreactivity (PSR sort gate)” value was “high polyreactivity”. With “QVQLVESGGGLVQAGGSLRLSCAASGRTFFSNAMGWYRQAPGKERELVAAISNGDNTYYADSVKGRFTISRDNAKNTVYLQMNSLKPEDTAVYYCAKDYRWVWRKYGYWGQGTQVTVSS” the “polyreactivity (PSR sort gate)” value was “low polyreactivity”. In the case of “QVQLVESGGGLVQAGGSLRLSCAASGRTFFSYTMGWYRQAPGKERELVAAISDSDGRTYYADSVKGRFTISRDNAKNTVYLQMNSLKPEDTAVYYCAAVPDKYWSRVRRYLFEHNYWGQGTQVTVSS”, the “polyreactivity (PSR sort gate)” value is reported as “low polyreactivity”. For “QVQLVESGGGLVQAGGSLRLSCAASGRTFFTNALGGYRQAPGKVRELVASINSGGNTTYADSVKGRFTISRDNAKNTVYLQINSLKPEDTAVSYCAAVRSAQRWRRYYYGGQGTQVTVSS”, the “polyreactivity (PSR sort gate)” value was “low polyreactivity”. For “QVQLVESGGGLVQAGGSLRLSCAASGRTFFYAMGWYRQAPGKEREFVAAISWSGGSTYYADSVKGRFTISRDNAKNTVYLQMNSLKPEDTAVYYCYKVGYYGVGTSKEFDYWGQGTQVTVSS”, the “polyreactivity (PSR sort gate)” value was “high polyreactivity”. With “QVQLVESGGGLVQAGGSLRLSCAASGRTFFYNAMGWYRQAPGKERELVAAISKNGGNTYYADSVKGRFTISRDNAKNTVYLQMNSLKPEDTAVYYCAARQSRTGPDRNDYWGQGTQVTVSS” the “polyreactivity (PSR sort gate)” value was “high polyreactivity”. For “QVQLVESGGGLVQAGGSLRLSCAASGRTFFYYAMGWYRQAPGKERELVAAISTGGSTNYADSVKGRFTISRDNAKNTVYLQMNSLKPEDTAVYYCNADYDKGVRFNFNASFGEFDYWGQGTQVTVSS”, the “polyreactivity (PSR sort gate)” value was “low polyreactivity”. In the case of “QVQLVESGGGLVQAGGSLRLSCAASGRTFGDKAMGWYRQAPGKERELVAAISWSGGRTYYADSVKGRFTISRDNAKNTVYLQMNSLKPEDTAVYYCAARNNRYPLYNYWGQGTQVTVSS”, the “polyreactivity (PSR sort gate)” value is reported as “low polyreactivity”. For “QVQLVESGGGLVQAGGSLRLSCAASGRTFGDNAMGWYRQAPGKERELVAAISSGDSTNYADSVKGRFTISRDNAKNTVYLQMNSLKPEDTAVYYCAAEFSHTYVYVDLDYWGQGTQVTVSS”, the “polyreactivity (PSR sort gate)” value was “low polyreactivity”. For “QVQLVESGGGLVQAGGSLRLSCAASGRTFGDNAMGWYRQAPWKERELVAAISRSGRTYYADSVKGRFTISRDNAKNTVYLQMNSLKPEYTAVYYCNTPYAHYVTHGLDYWGQGTQVTVSS”, the “polyreactivity (PSR sort gate)” value was “high polyreactivity”. With “QVQLVESGGGLVQAGGSLRLSCAASGRTFGEYTMGWYRQAPGKERELVAAISSAGRTNYADSVKGRFTISRDNAKNTVYLQMNSLKPEDTAVYYCAKTAERLHYGVYRFDYWGQGTQVTVSS” the “polyreactivity (PSR sort gate)” value was “low polyreactivity”. In the case of “QVQLVESGGGLVQAGGSLRLSCAASGRTFGFYAMGWDRQAPGKERELVAVITWSVTSTYYADSVKGRFTISRDNAKNTVYLQMNSLKPEDTAVYYCAAEYVVGASSVRDSLDYGYWGQGTQVTVSS”, the “polyreactivity (PSR sort gate)” value is reported as “high polyreactivity”. For “QVQLVESGGGLVQAGGSLRLSCAASGRTFGFYAMGWYRQAPGKERELVAGINNRGSGTYYADSVKGRFTISRDNAKNTVYLLMNSLKPEDTAVYYCAAGRRAKSRTWVNIRYDYWGQGTQVTVST”, the “polyreactivity (PSR sort gate)” value was “high polyreactivity”. For “QVQLVESGGGLVQAGGSLRLSCAASGRTFGFYAMGWYRQAPGKERELVATISSSGGSTYYADSVKGRYTISRDNAKNTVYIQMNSLKPEDTAVYYCAKVVSGWRSHYIGDYWGQGTQVTVSS”, the “polyreactivity (PSR sort gate)” value was “low polyreactivity”. For “QVQLVESGGGLVQAGGSLRLSCAASGRTFGGNAIGWYRQAPGKERELVAAISSGARTNYADSVKGRFTISRDNAKNTVYLQMNSLKPEDNAVYYCAAGYPYSYRDYYYWVQGTQVTVSS”, the “polyreactivity (PSR sort gate)” value was “high polyreactivity”. With “QVQLVESGGGLVQAGGSLRLSCAASGRTFGGNAMGWYRQAPGKERELVAAISLSGGTTYYADSVKGRFTISRDNAKNTVYLQMNSLKPEDTAVYYCAADTAGYYDEDKDGDYWGQGTQVTVSS” the “polyreactivity (PSR sort gate)” value was “low polyreactivity”. With “QVQLVESGGGLVQAGGSLRLSCAASGRTFGGYAMGWYRQAPGKERELVAAITWRGGRTFYADSVKGRFTISRDNAKNTVYLQMNSLKPEDTAVYYCNVVKYGPRYDYWGQGTQVTVSS” the “polyreactivity (PSR sort gate)” value was “high polyreactivity”. In the case of “QVQLVESGGGLVQAGGSLRLSCAASGRTFGGYTMGWYRQAPGKERELVAAINWSGTTYYADSVKGRFTISRDNAKNTVYLQMNSLIPEDTAVYYCAASLVSYYGLARDSVDYWGQGTQVNVSS”, the “polyreactivity (PSR sort gate)” value is reported as “low polyreactivity”. In the case of “QVQLVESGGGLVQAGGSLRLSCAASGRTFGHNAMGWYRQAPGKERELVAAISASGSNTYYADSVKGRFTISRDNAKNTVYLQMNSLKPEDTAVYYCAKQVYRPGQQSRYDYWGQGTQVTVSS”, the “polyreactivity (PSR sort gate)” value is reported as “low polyreactivity”. With “QVQLVESGGGLVQAGGSLRLSCAASGRTFGIYAMGWYRQAPGKERELVAAITGRGGSTHYADSVKGRFTISRDNAKNTVYLQMNSLKPEDTAVYYCAADYRYNRGITSNKDYDYWGQGTQVTVSS” the “polyreactivity (PSR sort gate)” value was “low polyreactivity”. For “QVQLVESGGGLVQAGGSLRLSCAASGRTFGIYAMGWYRQAPGKERELVATISWRGGSTYYADSVKGRFTISRDNAKNSVYLQMNSLKPEDTAVYYCAAGYYPYWGQGTQVTVSS”, the “polyreactivity (PSR sort gate)” value was “low polyreactivity”. For “QVQLVESGGGLVQAGGSLRLSCAASGRTFGIYAMGWYRQAPGKERELVATISWRGGSTYYADSVKGRFTISRDNAKNTVYLQMNSLKPEDTAVSYCAAGYYPYWGQGTQVTVSS”, the “polyreactivity (PSR sort gate)” value was “low polyreactivity”. With “QVQLVESGGGLVQAGGSLRLSCAASGRTFGKNAMGWYRQAPGKEREFVAAITSRGGSTYYADSVKGRFTISRDYAKNTVYLQMNSLKPEDTAVYYCNREYKRPSQRTEHYYWGQGSQVTVSS” the “polyreactivity (PSR sort gate)” value was “low polyreactivity”. With “QVQLVESGGGLVQAGGSLRLSCAASGRTFGKYAMGWYRQAPGKERELVATITRTARTNYADSVKGRFTNSRDNAKNTVYFQMNSLKPEDTAVYYCAKGWPAIYGTYDYWGQGTQVTVSS” the “polyreactivity (PSR sort gate)” value was “high polyreactivity”. With “QVQLVESGGGLVQAGGSLRLSCAASGRTFGLNAMGWYRQAPGKERELVAAITSGGSTYYADSVKGRFTITRDNAKTTVYLQMNSLKPEDTAVYYCAAAYFDFWGWLHDYWGQGTQVTVSS” the “polyreactivity (PSR sort gate)” value was “low polyreactivity”. For “QVQLVESGGGLVQAGGSLRLSCAASGRTFGNYAMGWYRQAPAKESELVAAITGRGGSTHYADSVKGRFTISRDNAKYTVYLQMNSLKPEDTAVYDCAADYRYNRGITSNKDYDYWGQGTQVTVSS”, the “polyreactivity (PSR sort gate)” value was “low polyreactivity”. With “QVQLVESGGGLVQAGGSLRLSCAASGRTFGNYAMGWYRQAPGKERELVAAITSSGGTTYYADSVKGRFTISRDYAKNTVYLQMNSLKPEDTAVYYCAARHYPRNSWGYDYWGQGTQVNVSS” the “polyreactivity (PSR sort gate)” value was “high polyreactivity”. With “QVQLVESGGGLVQAGGSLRLSCAASGRTFGPYAMGWYRQAPGKERELVAAISRSGGRTYYADSVKGRFSISRDNAKNTVYLQMNSLKPEETAVYYCNALYLSTRSGDYWGQGSQVTVSS” the “polyreactivity (PSR sort gate)” value was “high polyreactivity”. In the case of “QVQLVESGGGLVQAGGSLRLSCAASGRTFGPYARGWYIQAPGKERELVAAISWIGTSTYYADSVKGRFTISRDNAKNTVYLQMNSLKPEDTAVYYCAALEKNYTTKFYYWGQVTQVTVSS”, the “polyreactivity (PSR sort gate)” value is reported as “high polyreactivity”. In the case of “QVQLVESGGGLVQAGGSLRLSCAASGRTFGPYVMGWYRQAPGKERELVAAISFSGGSTYYADSVKGRFTISRDNAKNTVYLQMNSLKPEDTAVYYCAAPATRPYYTGYDYWGQGTQVTVSS”, the “polyreactivity (PSR sort gate)” value is reported as “high polyreactivity”. In the case of “QVQLVESGGGLVQAGGSLRLSCAASGRTFGPYVMGWYSQAPGKDRELVAVIRWSGVSTYYADSVKGRFTISRDKAKNTVYLLRNSMTPEDTAVDYCNAVRPYRLASYDYWGQGTQVTVSS”, the “polyreactivity (PSR sort gate)” value is reported as “high polyreactivity”. With “QVQLVESGGGLVQAGGSLRLSCAASGRTFGQNAMGWYRQAPGKERELVATITLNGGNTYYADSVKGRFTISRDNAKNTVYLQMNSLKPEDTAVYYCNAVPSWYRYRPPRFDYWGQGTQVTVSS” the “polyreactivity (PSR sort gate)” value was “low polyreactivity”. With “QVQLVESGGGLVQAGGSLRLSCAASGRTFGQYAMGWYRQAPGKEREFVAGITWSGGSTSYADSVKGRFTISRDNAKNTVYLQMNSLKPEDTAVYYCIAVYWKPSLEYGYWGQGTQVTVSS” the “polyreactivity (PSR sort gate)” value was “high polyreactivity”. In the case of “QVQLVESGGGLVQAGGSLRLSCAASGRTFGQYAMGWYRQAPGKERELVAAISTRGGSTYYADSVKGRFTISRDNAKNTVYLQLNSLKPEDTAVYYCAARQGWFAGYEYWGQGTQVTVSS”, the “polyreactivity (PSR sort gate)” value is reported as “low polyreactivity”. In the case of “QVQLVESGGGLVQAGGSLRLSCAASGRTFGQYTMGWYRQAPGKERELVAGITRSGSRTYYADSVKGRFTISRDNAKNTVYLQMNSLKPEDTAVYYCAARVYKSQGGLPEYDYWGQGTQVTVSS”, the “polyreactivity (PSR sort gate)” value is reported as “high polyreactivity”. With “QVQLVESGGGLVQAGGSLRLSCAASGRTFGQYVMGWYRQAPGKERELVAAIRSGGSTYYADSVKGRFTISRDNAKNTVYLQMNSLKPEDTAVYYCAKETYYGTDNFGQVGGEMDYWGQGTQVTVSS” the “polyreactivity (PSR sort gate)” value was “low polyreactivity”. In the case of “QVQLVESGGGLVQAGGSLRLSCAASGRTFGRNAMGWYRPAPGKERELVATITRRGGSTYYADSVKGRFTISRDNAKNTVYLQMYSLKPEDTAVYYCNAGIWLGSFRQRFYYWGQGTQVTVSS”, the “polyreactivity (PSR sort gate)” value is reported as “high polyreactivity”. For “QVQLVESGGGLVQAGGSLRLSCAASGRTFGRNAMGWYRQAPGKERELVAAINSGGSTKYADSVKGRFTISRDNAKNTVYLQMNSLKPEDTAVYYCARRGGFSYYYWGQGTQVTVSS”, the “polyreactivity (PSR sort gate)” value was “high polyreactivity”. In the case of “QVQLVESGGGLVQAGGSLRLSCAASGRTFGRNTMGWYRQAPGKERELVAAIDWSGGSTYYADSVKGRFTISRDNAKNTVYLQMNSLKPEDTAVYYCAAASRYPVNYYYWGQGTQVTVSS”, the “polyreactivity (PSR sort gate)” value is reported as “high polyreactivity”.
